Test results: article PMC10397247

T1: P9-AA
T1 chain: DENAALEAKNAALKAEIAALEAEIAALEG

T2: O8-AA
T2 chain: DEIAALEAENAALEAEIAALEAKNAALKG

T3: P10-AA
T3 chain: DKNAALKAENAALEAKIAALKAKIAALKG

T4: 4H796-bA
T4 chain: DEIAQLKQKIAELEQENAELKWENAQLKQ

T5: 4H349-bA
T5 chain: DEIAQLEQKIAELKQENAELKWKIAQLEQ

T6: 4H932-bA
T6 chain: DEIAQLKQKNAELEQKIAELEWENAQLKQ

T7: 4H3041-bA
T7 chain: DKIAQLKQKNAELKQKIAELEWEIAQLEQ

T8: 4H949-bA
T8 chain: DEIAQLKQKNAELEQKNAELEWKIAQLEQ

T9: 4H730-bA
T9 chain: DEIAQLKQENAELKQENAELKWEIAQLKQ

T10: 4H3297-bA
T10 chain: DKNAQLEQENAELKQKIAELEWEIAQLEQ

T11: 4H56-bA
T11 chain: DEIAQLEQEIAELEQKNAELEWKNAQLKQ

T12: 4H3364-bA
T12 chain: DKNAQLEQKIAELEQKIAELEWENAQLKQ

T13: 4H3381-bA
T13 chain: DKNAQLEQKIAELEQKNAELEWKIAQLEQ


What was measured:
[1] = target: T1, P9-AA; assay: two-hybrid library CCmax; details: mean of both orientations;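 note: natural log of median RNA to DNA barcode read ratio; higher means stronger binding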
[2] = target: T2, O8-AA; assay: two-hybrid library CCmax;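 note: natural log of median RNA to DNA barcode read ratio; higher means stronger binding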
[3] = target: T3, P10-AA; assay: two-hybrid library CCmax; details: mean of both orientations;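 note: natural log of median RNA to DNA barcode read ratio; higher means stronger binding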
[4] = target: T4, 4H796-bA; assay: two-hybrid library CCNG1;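 note: natural log of median RNA to DNA barcode read ratio; higher means stronger binding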
[5] = target: T5, 4H349-bA; assay: two-hybrid library CCNG1;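 note: natural log of median RNA to DNA barcode read ratio; higher means stronger binding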
[6] = target: T6, 4H932-bA; assay: two-hybrid library CCNG1;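 note: natural log of median RNA to DNA barcode read ratio; higher means stronger binding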
[7] = target: T7, 4H3041-bA; assay: two-hybrid library CCNG1
[8] = target: T8, 4H949-bA; assay: two-hybrid library CCNG1
[9] = target: T9, 4H730-bA; assay: two-hybrid library CCNG1
[10] = target: T10, 4H3297-bA; assay: two-hybrid library CCNG1
[11] = target: T11, 4H56-bA; assay: two-hybrid library CCNG1
[12] = target: T12, 4H3364-bA; assay: two-hybrid library CCNG1
[13] = target: T13, 4H3381-bA; assay: two-hybrid library CCNG1

Row | interaction score [1] | interaction score [2] | interaction score [3] | interaction score [4] | interaction score [5] | interaction score [6] | interaction score [7] | interaction score [8] | interaction score [9] | interaction score [10] | interaction score [11] | interaction score [12] | interaction score [13] | Binder
1 | -1.26 | -1.16 | -0.856 |  |  |  |  |  |  |  |  |  |  | DEIAALEAENAALEAEIAALEAKNAALKG [O8-AA]
2 |  |  |  | -1.16 | -1.44 | -0.693 | 0.985 | -1.15 | -1.65 | -0.21 | 0.805 | -1 | -1.17 | DKIAQLKQKNAELKQKIAELEWEIAQLEQ [4H3041-bA]
